This note sets out measurements from paper PMC8836807 (Science Advances, 2022).

The assay has as its target 6His-Nup60 aa27–539ΔHRΔFG-mGFP-StrepII (budding yeast (S. cerevisiae), UniProt P39705 27-539, ΔHR (aa48–162) | ΔFG (aa381–504)). Description: GUV co-recruitment assay.

B1: 6His-SUMO-Nup2 aa83–136–TagmBFPII-StrepII (domain or fragment, budding yeast (S. cerevisiae), UniProt P32499 83-136, looked up)
chain: NSPTTESNSRLKALNLQFKAKVDDLVLGKPLADLRPLFTRYELYIKNILEAPVK
As for B1, the binding result is reported as “binds”.
